Source: US20250019454A1 (BIOCYTOGEN PHARMACEUTICALS BEIJING, published 2025)

Key:
[1] = target: T1, ΔCRD4-TNFR2 protein (with CRD4 deletion), on CHO-S cells (human, UniProt P20333 23-461); assay: FACS on CHO-S cells with ΔCRD4-TNFR2, AF647 anti-human IgG Fc secondary
T1 construct: also called CHO-SΔCRD4-TNFR2; TNFR2 lacking CRD4
T1 sequence: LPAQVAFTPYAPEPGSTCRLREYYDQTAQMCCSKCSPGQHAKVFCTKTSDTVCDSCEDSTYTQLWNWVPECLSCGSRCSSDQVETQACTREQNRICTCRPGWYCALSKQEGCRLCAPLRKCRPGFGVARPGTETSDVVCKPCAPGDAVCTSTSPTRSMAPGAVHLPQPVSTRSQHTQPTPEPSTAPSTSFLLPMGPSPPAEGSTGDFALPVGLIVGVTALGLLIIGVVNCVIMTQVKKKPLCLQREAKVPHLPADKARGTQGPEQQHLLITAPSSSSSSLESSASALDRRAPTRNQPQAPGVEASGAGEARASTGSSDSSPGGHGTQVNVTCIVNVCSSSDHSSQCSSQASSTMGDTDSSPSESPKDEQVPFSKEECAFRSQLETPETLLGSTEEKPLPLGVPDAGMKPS
Text: (§1) TNFR2 has four cysteine rich domains (CRD). In another experiment, FACS was used to detect the binding of anti-hTNFR2 antibodies to TNFR2 proteins with different structural domains. Secondary antibody (Alexa Fluor® 647 AffiniPure F(ab′) 2 Fragment Goat Anti-Human IgG, Fcγ fragment specific, Jackson ImmunoResearch Laboratories, Inc., Cat #: 151524) was used. The fluorescence-labeled secondary antibody can attach to the Fc region of the anti-hTNFR2 antibodies so that the anti-hTNFR2 antibodies that are bound to the ΔCRD cells can be detected by FACS. Specifically, ΔCRD1-TNFR2 protein (with CRD1 deleteion), ΔCRD2-TNFR2 protein (with CRD2 deleteion), ΔCRD3-TNFR2 protein (with CRD3 deleteion) or ΔCRD4-TNFR2 protein (with CRD4 deleteion) were expressed in CHO-S cells respectively, and then the binding between the cells and different anti-hTNFR2 antibodies was detected.

[2] = target: T2, ΔCRD2-TNFR2 protein (with CRD2 deletion), on CHO-S cells (human, UniProt P20333 23-461); assay: FACS on CHO-S cells with ΔCRD2-TNFR2, AF647 anti-human IgG Fc secondary
T2 construct: also called CHO-SΔCRD2-TNFR2
T2 sequence: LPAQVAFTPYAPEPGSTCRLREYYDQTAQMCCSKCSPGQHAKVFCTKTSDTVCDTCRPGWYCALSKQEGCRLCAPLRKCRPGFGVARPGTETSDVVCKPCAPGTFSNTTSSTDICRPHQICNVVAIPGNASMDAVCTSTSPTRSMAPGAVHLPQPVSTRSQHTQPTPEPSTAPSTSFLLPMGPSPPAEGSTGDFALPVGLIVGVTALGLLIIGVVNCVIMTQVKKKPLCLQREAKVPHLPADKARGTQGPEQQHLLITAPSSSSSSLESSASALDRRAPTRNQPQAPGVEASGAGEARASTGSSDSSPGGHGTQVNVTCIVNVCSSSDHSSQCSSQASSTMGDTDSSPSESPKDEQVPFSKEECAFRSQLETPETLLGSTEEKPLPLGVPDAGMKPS
Text: as §1

[3] = target: T3, ΔCRD1-TNFR2 protein (with CRD1 deletion), on CHO-S cells (human, UniProt P20333 23-461); assay: FACS on CHO-S cells with ΔCRD1-TNFR2, AF647 anti-human IgG Fc secondary
T3 construct: also called CHO-SΔCRD1-TNFR2
T3 sequence: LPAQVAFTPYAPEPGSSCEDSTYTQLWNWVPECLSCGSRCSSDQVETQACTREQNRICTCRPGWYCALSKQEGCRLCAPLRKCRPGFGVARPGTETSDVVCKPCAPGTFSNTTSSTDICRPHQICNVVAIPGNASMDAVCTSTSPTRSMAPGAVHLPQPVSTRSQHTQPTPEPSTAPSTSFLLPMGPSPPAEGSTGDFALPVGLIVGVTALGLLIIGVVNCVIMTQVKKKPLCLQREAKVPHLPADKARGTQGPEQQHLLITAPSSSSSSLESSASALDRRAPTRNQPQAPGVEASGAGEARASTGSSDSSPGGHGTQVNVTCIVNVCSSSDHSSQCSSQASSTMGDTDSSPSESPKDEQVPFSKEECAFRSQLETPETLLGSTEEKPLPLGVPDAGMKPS
Text: as §1

[4] = target: T4, ΔCRD3-TNFR2 protein (with CRD3 deletion), on CHO-S cells (human, UniProt P20333 23-461); assay: FACS on CHO-S cells with ΔCRD3-TNFR2, AF647 anti-human IgG Fc secondary
T4 construct: also called CHO-SΔCRD3-TNFR2; TNFR2 lacking CRD3
T4 sequence: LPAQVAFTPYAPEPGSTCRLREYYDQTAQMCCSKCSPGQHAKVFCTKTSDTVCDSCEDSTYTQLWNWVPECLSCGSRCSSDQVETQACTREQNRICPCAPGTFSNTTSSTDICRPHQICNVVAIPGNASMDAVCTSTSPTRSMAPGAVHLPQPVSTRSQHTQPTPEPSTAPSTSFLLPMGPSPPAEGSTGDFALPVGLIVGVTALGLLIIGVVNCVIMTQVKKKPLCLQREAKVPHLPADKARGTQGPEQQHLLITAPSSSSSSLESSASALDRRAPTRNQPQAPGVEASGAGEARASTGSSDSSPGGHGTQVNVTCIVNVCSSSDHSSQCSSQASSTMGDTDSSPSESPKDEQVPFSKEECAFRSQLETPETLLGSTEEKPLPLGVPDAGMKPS
Text: as §1

[5] = target: T1, ΔCRD4-TNFR2 protein (with CRD4 …); assay: FACS on CHO-S cells with ΔCRD4-TNFR2
Text: as §1

[6] = target: T4, ΔCRD3-TNFR2 protein (with CRD3 …); assay: FACS on CHO-S cells with ΔCRD3-TNFR2
Text: as §1

- positive rate of binding (% of cells) [1]: 0.83%
- positive rate of binding (% of cells) [2]: 75.6%
- positive rate of binding (% of cells) [3]: 66.5%
- positive rate of binding (% of cells) [4]: 0.44%
- binding result [5]: no binding
- binding result [6]: no binding
B1: BC-1B6-IgG1-LALA (antibody, V domains shown)
VH: QVQLVESGGGVVQPGRSLRLSCAASGFTFSNFGMHWVRQAPGKGLEWVAVIWYEGSDKYYADSVKGRFTISRDNSKNTLYLQMNSLRAEDTAVYYCARDSSWGFLLYGMDVWGQGTTVTVSS
VL: DVVMTQSPLSLPVTLGQPASISCRSSRSLEYSDGNTYLNWFQQRPGQSPRRLIYKVSNRDSGVPDRFSGSGSGTAFTLKISGVEAEDVGVYYCMQGTHWPPTFGGGTKVEIK
